Series [1] in a line: protease digestion and thermal stability of recombinant type II human collagen from insect cells. In kind it is physicochemical. Conditions: expressed in recombinant insect cells. On the procedure:
Purification and analysis of Collagen Types I and II. Collagens types I and II were purified as described supra.
The thermal stability of the recombinant type II human collagen expressed from the recombinant insect cells was measured and compared with native type I human collagen. […] The Tm of the recombinant type II collagen was up to about 40° C.

Series [2] is described as follows: thermal stability of type III collagen produced in insect cells, trypsin/chymotrypsin digestion after heating to various temperatures. In kind it is physicochemical. On the procedure: Other aliquots were studied by a radioimmuno-assay for the trimeric N-propeptide of human type III procollagen (Farmos Diagnostica) and a colorimetric method for 4-hydroxyproline (Kivirikko et al., Anal. Biochem. 19: 249-255 (1967)). Still further aliquots were digested with pepsin for 1 h at 22° C. (Bruckner et al., Anal. Biochem. 110: 360-368 (1981)), and the thermal stability of the pepsin-resistant recombinant type III collagen was measured by rapid digestion with a mixture of trypsin and chymotrypsin.
The thermal stability of the type III collagen expressed under different cell culture conditions was studied by using digestion with a mixture of trypsin and chymotrypsin after heating to various temperatures (Bruckner, et al., Anal. Biochem. 110: 360-368 (1981)). High Five cells were infected with viruses coding for the proα1 (III) chains and the a and β subunits of human prolyl 4-hydroxylase. The cells were harvested 72 h after infection, homogenized in a buffer containing 0.2% Triton X-100 and centrifuged. In these experiments, ascorbate was either added daily to the cell culture medium as usual or omitted during the infection. The Triton X-100 soluble proteins were first digested with pepsin for 1 h at 22° C. to convert type III procollagen to type III collagen (Pihlajaniemi et al., EMBO J. 6: 643-649 (1987)), and the trypsin/chymotrypsin digestion was then performed for aliquots of the pepsin-treated samples. The samples were then electrophoresed on 8% SDS-PAGE and analyzed by Coomassie staining. FIG. 11 provides the results of this thermal stability for a variety of collagen products. As set forth in panel A, the cells were infected only with the virus coding for the proα1 (III) chains, and ascorbate was omitted from the culture medium; panel B, the cells were infected only with the virus coding for the proα1 (III) chains, and ascorbate was present in the culture medium as usually; panel C, the cells were coinfected with viruses coding for the proα1 (III) chains, and the α and β subunits of prolyl 4-hydroxylase, but ascorbate was omitted from the culture medium; and panel D, the cells were infected with the three viruses, and ascorbate was present in the culture medium. […] The arrows show the position of the α1 (III) chains. […] (FIG. 11A). […] In contrast, when the proα1 (III) chains were produced in the presence of both prolyl 4-hydroxylase and ascorbate, the Tm of type III collagen was increased considerably, being at about 38-40° C. (FIG. 11D).

The nature of series [3]: CD spectrum analysis of purified recombinant type III collagen. In kind it is physicochemical. On the procedure:
Type III procollagen was expressed in High Five cells cultured either as monolayers or in suspension in shaker flasks. The cells were harvested 72 h after infection, homogenized in a buffer containing 0.1% Triton X-100 and centrifuged, and the supernatant of the cell homogenate was passed through a DEAE cellulose column to remove nucleic acids. The flow through fractions containing the type III procollagen were pooled and digested with pepsin. This converted the type III procollagen to type III collagen and digested most of the noncollagenous proteins. The type III collagen was then concentrated by salt precipitation, solubilized and treated with pepsin as above. The type III collagen was finally separated from pepsin and other remaining contaminants by gel filtration on a Sephacryl S 500-HR column. The fractions containing the type III collagen were pooled, dialyzed and lyophilized. The purified type III collagen was analyzed by 5% SDS-PAGE under reducing (FIG. 9, lane 2) and nonreducing (FIG. 9, lane 3) conditions. […] Amino acid and CD spectrum analysis were performed on the purified type III collagen. The amino acid composition of the recombinant type III obtained corresponded well with the amino acid composition reported for human type III collagen. […] The melting temperature of the recombinant type III collagen determined by CD spectrum analysis was 40° C.

Series [4] deals with prolyl 4-hydroxylase. Kind of series: Km values of prolyl 4-hydroxylase, assay based on decarboxylation of 2-oxo[1-14C]glutarate. In kind it is biochemical, human. The settings on record: other substrates held constant. On the procedure:
When the time course of protein expression was examined, Sf9 cells infected with recombinant viruses were labeled with [^35S]methionine (10 μCi/μl; Amersham; 1 Ci=[…]) for 2 hours at various time points between 24 and 50 hours after infection and collected for analysis by SDS/10% PAGE. To determine the maximal accumulation of recombinant protein, cells were harvested at various times from 24 to 96 hours after infection and analyzed on by SDS/10% PAGE. Both the 0.1% Triton X-100- and 1% SDS-soluble fractions of the cells were analyzed. Prolyl 4-hydroxylase activity was assayed by a method based on the decarboxylation of 2-oxo[1-^14C^−]glutarate (Kivirikko et al., Methods in Enzymology 82: 245-304 (1982)). The Km values were determined by varying the concentrations of one substrate in the presence of fixed concentration of the second, while the concentrations of the other substrates were held constant (Myllyla et al., Eur. J. Biochem. 80: 349-357 (1977)). Protein disulfide-isomerase activity of the β subunit was measured by glutathione: insulin transhydrogenase assay (Carmichael et al., J. Biol. Chem. 252: 7163-7167 (1977)). Western blot analysis was performed using a monoclonal antibody, 5B5, to the β subunit of human prolyl 4-hydroxylase (Hoyhtya et al., Eur. J. Biochem. 141: 477-482 (1984)). Prolyl 4-hydroxylase was purified by a procedure consisting of poly (L-proline) affinity chromatography, DEAE-cellulose chromatography, and gel filtration (Kivirikko et al., Methods in Enzymology 144: 96-114 (1987)).
Table 2 presented data on the enzymic activity of the recombinant enzyme. The Km values were determined by varying the concentration of one substrate in the presence of fixed concentrations of the second while the concentration of the other substrates were held constant.

Setting [5] is: substrate 2-oxoglutarate, read-out: Km value, 2-oxoglutarate.
Setting [6] is: substrate (Pro—Pro-Gly)10, read-out: Km value, (Pro—Pro-Gly)10.
The mark [7] stands for this setting: substrate Fe^+2, read-out: Km value, Fe^+2.
Where [8] appears, read: substrate ascorbate, read-out: Km value, ascorbate.

Read-outs that look alike come from different tables or passages of the source.

As to “recombinant type II collagen: recombinant type II human collagen expressed from recombinant insect cells”, in series [1], the “Tm of the recombinant type II collagen” value was “up to 40 °C”; the “trypsin and chymotrypsin digestion” value was “resistance to trypsin and chymotrypsin digestion”.

Regarding “recombinant type III collagen: recombinant human type III collagen produced in insect cells, pepsin-converted from type III procollagen”, the “effect on the thermal stability” value in series [2] (High Five cells, either ascorbate or prolyl 4-hydroxylase present without the other (FIG. 11B and 11C)) is on record as “virtually no increasing effect”. In addition, the “Tm of type III collagen” value was 32-34 °C in series [2] (High Five cells, proα1 (III) chains expressed without prolyl 4-hydroxylase and ascorbate (FIG. 11A)); 38-40 °C in series [2] (High Five cells, proα1 (III) chains produced in the presence of both prolyl 4-hydroxylase and ascorbate (FIG. 11D)). The “Tm of the triple helices by CD spectra compared with authentic type III collagen” value in series [3] (purified human type III collagen produced in insect cells) is on record as “virtually identical”. Also, the “melting temperature determined by CD spectrum analysis” value in series [3] (purified type III collagen from High Five cells) was 40 °C.

“α582β2: recombinant human prolyl 4-hydroxylase tetramer from Sf9 cells infected with α58 virus and β virus”: the Km (in general, the concentration of substrate that gives half-maximal velocity) in series [4] (setting [5]) stood at 22 µM; in series [4] (setting [6]), 18 µM; in series [4] (setting [7]), 4 µM; in series [4] (setting [8]), 330 µM.

With “α592β2: recombinant human prolyl 4-hydroxylase tetramer from Sf9 cells infected with α59 virus and β virus”, the Km is 25 µM in series [4] (setting [5]), 18 µM in series [4] (setting [6]), 4 µM in series [4] (setting [7]) and 330 µM in series [4] (setting [8]).

B1: proα1 chains of type III procollagen: type III procollagen expressed in insect cells without recombinant prolyl 4-hydroxylase (protein, UniProt P02461 24-1466, looked up)
pro-form: QQEAVEGGCSHLGQSYADRDVWKPEPCQICVCDSGSVLCDDIICDDQELDCPNPEIPFGECCAVCPQPPTAPTRPPNGQGPQGPKGDPGPPGIPGRNGDPGIPGQPGSPGSPGPPGICESCPTGPQNYSPQYDSYDVKSGVAVGGLAGYPGPAGPPGPPGPPGTSGHPGSPGSPGYQGPPGEPGQAGPSGPPGPPGAIGPSGPAGKDGESGRPGRPGERGLPGPPGIKGPAGIPGFPGMKGHRGFDGRNGEKGETGAPGLKGENGLPGENGAPGPMGPRGAPGERGRPGLPGAAGARGNDGARGSDGQPGPPGPPGTAGFPGSPGAKGEVGPAGSPGSNGAPGQRGEPGPQGHAGAQGPPGPPGINGSPGGKGEMGPAGIPGAPGLMGARGPPGPAGANGAPGLRGGAGEPGKNGAKGEPGPRGERGEAGIPGVPGAKGEDGKDGSPGEPGANGLPGAAGERGAPGFRGPAGPNGIPGEKGPAGERGAPGPAGPRGAAGEPGRDGVPGGPGMRGMPGSPGGPGSDGKPGPPGSQGESGRPGPPGPSGPRGQPGVMGFPGPKGNDGAPGKNGERGGPGGPGPQGPPGKNGETGPQGPPGPTGPGGDKGDTGPPGPQGLQGLPGTGGPPGENGKPGEPGPKGDAGAPGAPGGKGDAGAPGERGPPGLAGAPGLRGGAGPPGPEGGKGAAGPPGPPGAAGTPGLQGMPGERGGLGSPGPKGDKGEPGGPGADGVPGKDGPRGPTGPIGPPGPAGQPGDKGEGGAPGLPGIAGPRGSPGERGETGPPGPAGFPGAPGQNGEPGGKGERGAPGEKGEGGPPGVAGPPGGSGPAGPPGPQGVKGERGSPGGPGAAGFPGARGLPGPPGSNGNPGPPGPSGSPGKDGPPGPAGNTGAPGSPGVSGPKGDAGQPGEKGSPGAQGPPGAPGPLGIAGITGARGLAGPPGMPGPRGSPGPQGVKGESGKPGANGLSGERGPPGPQGLPGLAGTAGEPGRDGNPGSDGLPGRDGSPGGKGDRGENGSPGAPGAPGHPGPPGPVGPAGKSGDRGESGPAGPAGAPGPAGSRGAPGPQGPRGDKGETGERGAAGIKGHRGFPGNPGAPGSPGPAGQQGAIGSPGPAGPRGPVGPSGPPGKDGTSGHPGPIGPPGPRGNRGERGSEGSPGHPGQPGPPGPPGAPGPCCGGVGAAAIAGIGGEKAGGFAPYYGDEPMDFKINTDEIMTSLKSVNGQIESLISPDGSRKNPARNCRDLKFCHPELKSGEYWVDPNQGCKLDAIKVFCNMETGETCISANPLNVPRKHWWTDSSAEKKHVWFGESMDGGFQFSYGNPELPEDVLDVHLAFLRLLSSRASQNITYHCKNSIAYMDQASGNVKKALKLMGSNEGEFKAEGNSKFTYTVLEDGCTKHTGEWSKTVFEYRTRKAVRLPIVDIAPYDIGGPDQEFGVDVGPVCFL
modifications: pro-form
notes: type III procollagen expressed in insect cells without recombinant prolyl 4-hydroxylase
Turning to B1, the “Tm of the triple helices, lower than procollagen produced in the presence of recombinant prolyl 4-hydroxylase” value in series [2] (insect cells, without recombinant prolyl 4-hydroxylase) was “about 6 °C”.
